{
  "source": "patent EP4592322A1",
  "binders": {"B1": {"name": "trimucrin variant RR (protein)", "chain": "EAGEECDCGSPENPCCDAATCKLRPGAQCAEGLCCDQCRFKKKRTICRRAKGDRRDDRCTGQSADCPRNRLYG"}},
  "target": "integrin alpha(IIb)beta(3) (UniProt P08514)",
  "test": "cell-based or functional assay",
  "data": [
    {"binder": "B1", "values": [
      {"measurement": "IC50: platelet aggregation", "value": 52.5, "unit": "nM"},
      {"measurement": "Ratio (RR/corresponding protein) of IC50 for platelet aggregation (ratio (RR/corresponding protein))", "value": 1}
    ]}
  ]
}
